Assay results from IntAct's records for PubMed 15165234.

B1: Nitrogen regulatory protein P-II (Synechococcus elongatus (strain PCC 7942)), P0A3F4 (parent)
chain: MKKIEAIIRPFKLDEVKIALVNAGIVGMTVSEVRGFGRQKGQTERYRGSEYTVEFLQKLKLEIVVEDAQVDTVIDKIVAAARTGEIGDGKIFVSPVDQTIRIRTGEKNADAI
partner: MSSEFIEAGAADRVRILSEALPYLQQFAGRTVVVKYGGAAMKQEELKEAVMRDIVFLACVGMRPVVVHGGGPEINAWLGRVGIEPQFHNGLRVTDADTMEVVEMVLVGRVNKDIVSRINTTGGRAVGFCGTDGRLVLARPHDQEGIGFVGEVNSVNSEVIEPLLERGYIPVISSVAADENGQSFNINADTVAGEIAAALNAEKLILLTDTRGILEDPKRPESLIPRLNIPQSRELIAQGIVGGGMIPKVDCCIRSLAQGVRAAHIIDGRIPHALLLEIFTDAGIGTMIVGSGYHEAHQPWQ

Variants of: B1
Conditions: with argb_syne7 argB

effect of a mutation on the interaction	Variant
decreasing interaction	S49E
decreasing interaction	S49A
